18 molecules from patent publication US20160251436A1 (PD 1 ACQUISITION GROUP, published 2016) can be followed below.

One assay addresses T1, PD-1-HIS (human, UniProt Q15116).
T1 construct: soluble extracellular domain; May be the same protein as m2; also called PD-1-HIS(tag); PD-1-His Tag (Sino Biological #10377-H08H-50)
The experiment in a line: ELISA, supernatant of transfected HEK293 cells on PD-1-HIS(tag), OD 450 nm, average of two experiments.

Assay [1] has as its target T2, human Programmed Death-1 (PD-1) expressed on the cell surface (human, UniProt Q15116 25-288).
T2 construct: whole, on cells; also called CD279; Human PD-1 Expressed on HEK293 Surface
Nature of the assay: cell binding, HEK293 cells expressing human PD-1, fluorescent anti-mouse secondary. As for the experimental part:
Recombinant antibodies from cultured supernatants were also used in cell-based binding studies. HEK293 cells were transfected (Qiagen, SuperFect) with expression plasmids encoding the Ig heavy and light chains of anti-PD-1 antibodies. After 3-5 days, recombinant antibodies in the supernatants of transfected cells were harvested. Stable HEK293 cells expressing human PD-1 or primary cells were used for the cell-based binding confirmation studies. Antibodies from cultured supernatants were assessed for binding to cell surface PD-1 using fluorescently labeled anti-mouse IgG (polyclonal) antibody (Jackson Immunoresearch).
In both studies, commercially available mouse anti-PD-1 antibody and isotype control mouse IgG1 […] were used as controls. […] Strong binding is denoted as “+++”, medium binding is denoted as “++”, and weak binding is denoted as “+”.

T1 sequence (Q15116 25-167 limits assumed): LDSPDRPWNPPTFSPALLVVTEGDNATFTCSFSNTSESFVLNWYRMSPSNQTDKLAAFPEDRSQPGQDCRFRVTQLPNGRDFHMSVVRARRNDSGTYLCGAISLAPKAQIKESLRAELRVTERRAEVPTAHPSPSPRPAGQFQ
T2 sequence (Q15116 25-288): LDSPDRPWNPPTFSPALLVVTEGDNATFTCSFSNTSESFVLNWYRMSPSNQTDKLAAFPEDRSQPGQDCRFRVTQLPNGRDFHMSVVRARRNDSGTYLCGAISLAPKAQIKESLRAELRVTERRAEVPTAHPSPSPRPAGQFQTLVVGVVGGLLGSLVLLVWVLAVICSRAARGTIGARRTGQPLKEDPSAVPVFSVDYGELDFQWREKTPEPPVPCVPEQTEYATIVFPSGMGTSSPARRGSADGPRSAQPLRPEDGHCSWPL

B1: 100388_H4VH1_100389_H4VK4 (antibody, V domains shown)
VH: EVQLQESGPGLVAPSQSLSITCTVSGFSLTNYGVDWVRQSPGKGLEWLGVIWGVGSTNYNSALKSRLSISKDNSKSQVFLKMNSLQTDDTAMYYCASDGFVYWGQGTLVTVSS
VL: DIVLTQDELSNPVTSGESVSISCRSSKSLLYKDGKTYLNWFLQRPGQSPQVLIYFMSTRASGVSDRFSGSGSGTDFTLEISRVKAEDVGVYYCQQLVDFPFTFGSGTKLELK
notes: Mouse variable regions; cloned into pFUSE-CHIg-mG1 (murine IgG1 Fc), expressed in HEK293
For B1, in the assay with PD-1-HIS, the binding result is on record as “binds”.

B2: 100392_C3VH7_100393_C3VK10 (antibody, V domains shown)
VH: EVQLQESGPGLVAPSQSLSITCTVSGFSLTSYGVDWVRQSPGKGLEWLGVIWGIGSTNYNSALKSRLSISKDNSKSQVFLKMNSLQSDDTAMYYCASDGFVYWGQGTLVTVSS
VL: DIVMTQDELYNPVTSGESVSISCRSSKSLLYKDGKTYLNWFLQRPGQSPQVLIYFMSTRASGVSDRFSGSGSGTDFTLEISRVKAEDVGVYYCQQLVDFPFTFGSGTKLEIK
notes: as for B1
As to B2, the binding result with PD-1-HIS was “binds”.

B3: 100394_F1VH8_100395_F1VK4 (antibody, V domains shown)
VH: EVQLQESGPELVKPGASVKIPCKASGYTFTDYNMDWVKQSHGKSLEWIGDIDPNNGGTIYNQNFKGKATLTVDKSSSTAYMELRSLTSEDTAVYYCARWRSSMDYWGQGTSVTVSS
VL: DIVLTQSPSSLSASLGDRVTISCSASQGISNYLNWYQQKPDGTVKLLIYYTSSLHSGVPSRFSGSGSGTDYSLTISNLEPEDIATYYCQQYSKLPWTFGGGTKLEIK
notes: as for B1
With B3, the binding result in the assay with PD-1-HIS is reported as “binds”.

B4: 100392_C4VH5_100393_C4VK8 (antibody, V domains shown)
VH: EVQLQESGPELVKPGASVKIPCKASGYTFTDYNMDWVKKSHGKSLEWIGDIDPNNGGTIYNQKFKGKATLTVDKSSRTAYMELRSLTSEDTAVYYCARWRSSMDYWGQGTSVTVSS
VL: DIVITQSPSSLSASLGDRVTISCSASQGISNYLNWYQQKPDGTVKLLIYYTSSLHSGVPSRFSGSGSGTDYSLTISNLEPEDIATYYCQQYSELPWTFGGGTKLEIK
notes: as for B1
For B4, the binding result (in assay [1]; with PD-1-HIS) was “binds” each time.

B5: 100392_B4VH10_100393_B4VK10 (antibody, V domains shown)
VH: EVQLQESGPELVRPGASVKIPCKASGYTFTDYNMDWVMQSHGKSLEWIGDIDPNNGGTIYNQKFKGKATLTVDKSSSTAYMELRSLTSEDTAVYYCTRWRSSMDYWGQGTSVTVSS
VL: DIVMTQSPSSLSASLGDRVTISCSASQGISNYLNWYQQKPDGTVKLLIYYTSNLHSGVPSRFSGSGSGTDYSLTISDLAPEDIATYYCQQYSYLPWTFGGGTKLEIK
notes: as for B1
Consider B5, for which, in the assay with PD-1-HIS, the binding result is given as “binds”.

B6: 100388_C1VH2_100389_C1VK2 (antibody, V domains shown)
VH: EVQLQESGPELVKPGASVKIPCKASGYTFTDYNMDWVKQSHGKSLEWIGDIDPNNGGIIYNQKFKGKAALTVDKSSSTAYMELRSLTSEDTAVYYCARWRSSMDYWGQGTSVTVSS
VL: DIVLTQTPSSLSASLGDRVTISCSASQGISNYLNWYQQKPDGTVKLLIYYTSSLHSGVPSRFSGSGSGTDYSLTISNLEPEDIATYYCQQYSKLPWTFGGGTKLEIK
notes: Mouse variable regions; cloned into pFUSE-CHIg-mG1 (murine IgG1 Fc), expressed in HEK293; also called 388C12B
With B6, the binding result (in assay [1]; with PD-1-HIS) was “binds” each time.

B7: 100392_H4VH9_100393_H4VK6 (antibody, V domains shown)
VH: EVQLQESGPELVKPGASVKIPCKASGYTFTDYNVDWVKQSHGKSLEWIGDIDPNNGGTFYNQKFKGKATLTVDKSSSTAHMELRSLTSEDTAVYYCVRWRSSMDYWGQGTSVTVSS
VL: DIVMTQSPSSLSASLGDRVTISCSASQGISNYLNWYQQKPDGTVKLLIYYTSNLHSGVPSRFSGSGSGTDYSLTISDLAPEDIATYYCQQYSYLPWTFGGGTKLEIK
notes: as for B1
As to B7, the binding result (in assay [1]; in the assay with PD-1-HIS) was “binds” each time.

B8: 100392_C5VH6_100393_C5VK7 (antibody, V domains shown)
VH: EVQLQESGPELVKPGASVKIPCKASGYTFTDYNMDWVKQSHGKSLEWIGDIDPNSGGSIYNQKFKGKATLTVDKSSRTVYMELRSLTSEDTAVYYCARWRSSMDYWGQGTSVTVSS
VL: DIVMTQSPSSLSASLGDRVTISCSASQGISHYLNWYQQKPDGTVKLLIYYTSSLHSGVPSRFSGSGSGTDYSLTIRNLEPEDIATYYCQQYSELPWTFGGGTKLEIK
notes: Mouse variable regions; cloned into pFUSE-CHIg-mG1 (murine IgG1 Fc), expressed in HEK293; also called 392C5A
For B8, the binding result (in assay [1]; in the assay with PD-1-HIS) was “binds” throughout.

B9: 100392_D2VH7_100393_D2VK6 (antibody, V domains shown)
VH: EVQLQESGPELVKPGASVKIPCKASGYTFTDYNMDWVKQSHGKSLEWIGDIDPNTGTTFYNQDFKGKATLTVDKSSSTAYMELRSLTSEDTAVYYCARWRSSMDYWGQGTSLTVSS
VL: DIVMTQTPSSLSASLGDRVTISCSASQGISYYLNWYQQKPDGTIKLLIYYTLSLHSGVPSRFSGSGSGTDYSLTISNLEPEDIATYYCQQYSELPWTFGGGTKLEIK
notes: as for B1
Take B9: the binding result (in assay [1]; with PD-1-HIS) was “binds” in each case.

B10: 100392_C5VH6_100393_C5VK10 (antibody, V domains shown)
VH: EVQLQESGPELVKPGASVKIPCKASGYTFTDYNMDWVKQSHGKSLEWIGDIDPNSGGSIYNQKFKGKATLTVDKSSRTVYMELRSLTSEDTAVYYCARWRSSMDYWGQGTSVTVSS
VL: DIVMTQSTSSLSASLGDRVTISCSASQGISHYLNWYQQKPDGTVKLLIYYTSSLHSGVPSRFSGSGSGTDYSLTIRNLEPEDIATYYCQQYSELPWTFGGGTKLEIK
notes: Mouse variable regions; cloned into pFUSE-CHIg-mG1 (murine IgG1 Fc), expressed in HEK293; also called 392C5B
As for B10, the binding result (in assay [1]; in the assay with PD-1-HIS) was “binds” each time.

B11: 100388_C1VH6_100389_C1VK1 (antibody, V domains shown)
VH: EVQLQESGPELVKPGASVKIPCKASGYTFTDYNMDWVKQSHGKSLEWIGDIDPNNGGIIYNQKFKGKAALTVDKSSSTAYMELRSLTSEDTAVYYCTRWRSSMDYWGQGTSVTVSS
VL: DIVMTQSPSSLSASLGDRVTISCSASQDISSYLNWYQQKPDGTVKLLIYYTSSLHSGVPSRFSGSGSGTDYSLTISNLEPEDIATYYCQQYSELPWTFGGGTKLEIK
notes: Mouse variable regions; cloned into pFUSE-CHIg-mG1 (murine IgG1 Fc), expressed in HEK293; also called 388C16A
Turning to B11, the binding result (in assay [1]; with PD-1-HIS) was “binds” each time.

B12: 100388_C1VH2_100389_C1VK1 (antibody, V domains shown)
VH: EVQLQESGPELVKPGASVKIPCKASGYTFTDYNMDWVKQSHGKSLEWIGDIDPNNGGIIYNQKFKGKAALTVDKSSSTAYMELRSLTSEDTAVYYCARWRSSMDYWGQGTSVTVSS
VL: DIVMTQSPSSLSASLGDRVTISCSASQDISSYLNWYQQKPDGTVKLLIYYTSSLHSGVPSRFSGSGSGTDYSLTISNLEPEDIATYYCQQYSELPWTFGGGTKLEIK
notes: Mouse variable regions; cloned into pFUSE-CHIg-mG1 (murine IgG1 Fc), expressed in HEK293; also called 388C12A
For the molecule B12, the binding result (in assay [1]; with PD-1-HIS) was “binds” in each case.

B13: 100388_C1VH6_100389_C1VK2 (antibody, V domains shown)
VH: EVQLQESGPELVKPGASVKIPCKASGYTFTDYNMDWVKQSHGKSLEWIGDIDPNNGGIIYNQKFKGKAALTVDKSSSTAYMELRSLTSEDTAVYYCTRWRSSMDYWGQGTSVTVSS
VL: DIVLTQTPSSLSASLGDRVTISCSASQGISNYLNWYQQKPDGTVKLLIYYTSSLHSGVPSRFSGSGSGTDYSLTISNLEPEDIATYYCQQYSKLPWTFGGGTKLEIK
notes: Mouse variable regions; cloned into pFUSE-CHIg-mG1 (murine IgG1 Fc), expressed in HEK293; also called 388C16B
Consider B13, for which the binding result (in assay [1]; with PD-1-HIS) was “binds” throughout.

B14: 100413_H1VH3_100414_H1VK6 (antibody, V domains shown)
VH: EVQLQESGPSLVQPSQSLSITCTVSGFSLTNYGVHWVRQSPGKGLEWLGVIWRGGNTDYNAAFMSRLSITKDNSKSQVFFKFHSLQTDDTAIYYCAASMIGGYWGQGTTLTVSS
VL: DIVLTQSPLSLPVSLGDQASISCRSSQSIVHSDGNTYLEWYLQKPGQSPKLLIYKVSNRFSGVPDRFSGSGSGTDFTLKISRVEAEDLGIYYCFQGSHVPLTFGAGTKLELK
notes: as for B1
For B14, the binding result in the assay with PD-1-HIS was “binds”.

B15: 100411_C2VH3_100412_C2VK7 (antibody, V domains shown)
VH: EVQLQESGPGLVKPSQSLSLTCTVTGYSITSDYAWNWIRQFPGNKLEWMGYITYSGSPTYNPSLKSQFSITRDTSKNQFFLQLNSVTTEDTATYYCARGLGGHYFDYWGQGTTLTVSS
VL: DIVLTQTTATLSVTPGDRVSLSCRASQSISDYLHWYQQKSHESPRLLIKYASQSISGIPSRFSGSGSGSDFTLTVNSVEPEDVGVYYCQNGHSYPYTFGGGTKLEIK
notes: as for B1
Take B15: the binding result (in assay [1]; in the assay with PD-1-HIS) was “binds” throughout.

B16: 100244_C7VH10_100245_C8VK5 (antibody, V domains shown)
VH: EVQLQESGPELVRPGASVKMSCKASGYTFTSYWMHWVKQRPGQGLEWIGMIDPSNSETSLNQKFKDKATLNVDKSSKTAYMQLSSLTSEDSAVYYCARSRGNYAYDMDYWGQGTSVTVSS
VL: DIVITQTTAIMSASPGEKVTLTCSASSSVSSNYLYWYQQRPGSSPKLWIYSTSNLASGVPARFSGSGSGTSYSLTISSMEAEDAASYFCHQWSSYPPTFGSGTKLEIK
notes: as for B1
B16: the binding result (in assay [1]; with PD-1-HIS) was “binds” throughout.

B17: 100244_C7VH10_100245_C8VK5m1 (antibody, V domains shown)
VH: EVQLQESGPELVRPGASVKMSCKASGYTFTSYWMHWVKQRPGQGLEWIGMIDPSNSETSLNQKFKDKATLNVDKSSKTAYMQLSSLTSEDSAVYYCARSRGNYAYDMDYWGQGTSVTVSS
VL: DIVLTQTPAIMSASPGEKVTLTCSASSSVSSNYLYWYQQRPGSSPKLWIYSTSNLASGVPARFSGSGSGTSYSLTISSMEAEDAASYFCHQWSSYPPTFGSGTKLEIK
notes: Mouse variable regions; cloned into pFUSE-CHIg-mG1 (murine IgG1 Fc), expressed in HEK293; also called 244C7m1
Regarding B17, the binding result (in assay [1]; with PD-1-HIS) was “binds” in each case.

B18: 100258_F6VH4_100259_F6VK1m1 (antibody, V domains shown)
VH: EVQLQESGPELVRPGASVKMSCKASGYTFTSYWMHWVKQRPGQGLEWIGMIEPSSSETSLNQKFKDKATLNVDKSSNTAYMQLSSLTSEDSAVYYCARSRGNYAYEMDYWGQGTSVTVSS
VL: DIVMTQTPATMSASPGEKVTLTCSASSSVNSNYLYWYQQKPGSSPKVWIYSTSNLASGVPARFSGSGSGTSYSLTISSMEAEDAASYFCHQWSSYPPTFGSGTKLELK
notes: Mouse variable regions; cloned into pFUSE-CHIg-mG1 (murine IgG1 Fc), expressed in HEK293; also called 258F6m
B18: the binding result (in assay [1]; with PD-1-HIS) was “binds” throughout.
